The values below come from patent publication US20210030857A1 (NGM BIOPHARMACEUTICALS, published 2021).

The target in the experiment is T1, human beta klotho mutant R703A on HEK-293T cells (human, UniProt Q86Z14 1-1044).
T1 sequence: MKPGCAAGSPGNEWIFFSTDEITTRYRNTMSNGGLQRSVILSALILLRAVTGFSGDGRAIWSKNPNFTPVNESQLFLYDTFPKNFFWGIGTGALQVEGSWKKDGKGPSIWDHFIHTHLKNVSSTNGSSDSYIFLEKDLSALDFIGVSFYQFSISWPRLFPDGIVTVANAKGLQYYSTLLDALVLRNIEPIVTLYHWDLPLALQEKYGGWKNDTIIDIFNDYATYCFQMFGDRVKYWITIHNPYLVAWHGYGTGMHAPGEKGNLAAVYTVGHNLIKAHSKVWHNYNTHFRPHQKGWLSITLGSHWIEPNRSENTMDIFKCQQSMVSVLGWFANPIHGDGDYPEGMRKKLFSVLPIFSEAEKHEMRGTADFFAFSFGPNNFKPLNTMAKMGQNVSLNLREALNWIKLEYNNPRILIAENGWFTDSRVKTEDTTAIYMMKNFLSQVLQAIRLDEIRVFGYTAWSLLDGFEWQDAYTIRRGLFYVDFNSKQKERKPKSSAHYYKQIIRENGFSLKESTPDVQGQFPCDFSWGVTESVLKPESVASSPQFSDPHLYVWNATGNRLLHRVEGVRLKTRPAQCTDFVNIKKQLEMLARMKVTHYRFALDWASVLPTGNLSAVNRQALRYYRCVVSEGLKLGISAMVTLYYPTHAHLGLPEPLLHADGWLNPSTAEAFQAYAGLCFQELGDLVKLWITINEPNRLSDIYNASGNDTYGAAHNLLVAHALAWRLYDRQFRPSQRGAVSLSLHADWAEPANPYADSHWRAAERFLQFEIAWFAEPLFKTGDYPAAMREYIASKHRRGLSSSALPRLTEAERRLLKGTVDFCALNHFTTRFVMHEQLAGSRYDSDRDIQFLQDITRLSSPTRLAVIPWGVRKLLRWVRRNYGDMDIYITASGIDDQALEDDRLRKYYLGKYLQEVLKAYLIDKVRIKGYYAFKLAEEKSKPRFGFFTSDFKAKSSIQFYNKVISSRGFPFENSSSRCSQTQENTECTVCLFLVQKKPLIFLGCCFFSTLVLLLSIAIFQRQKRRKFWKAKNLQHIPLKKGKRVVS
The experiment can be described thus: shotgun alanine mutagenesis, FACS on HEK-293T cells. As to the method:
In order to further identify specific binding residues within human beta klotho KL2 domain, shotgun mutagenesis was used to separately mutate individual residues of the KL2 domain of human beta klotho to an alanine (e.g., residues F508A-L1008A). […] For example, screening of the beta klotho mutant proteins was conducted at a concentration of 0.5 μg/ml for the humanized 5H23 antibody, 1.0 μg/ml for the Fab fragment, and 2.0 μg/ml for a positive control polyclonal anti-beta klotho antibodies.

B1: humanized 5H23 antibody (VH SEQ ID NO: 271 and VL SEQ ID NO: 276) (antibody, V domains shown)
VH: QVQLQQSGAEVKKPGASVKVSCKASGYTFTSYDINWVRQAPGQGLEWIGWIYPGDGSTKYNEKFKGKATITRDTSASTAYMELSSLRSEDTAVYFCARSDYYGSRSFAYWGQGTLVTVSS
VL: DIVMTQSPDSLAVSLGERATINCRASKSVSTSGYVYMHWYQQKPGQPPKLLIYLASYLESGVPDRFSGSGSGTDFTLTISSVQAEDVAVYYCQHSRDLTFPFGGGTKLEIK
notes: also called h5H23; h5H23 (Prep 1)
Take B1: the binding result is reported as “no binding (tested: 0.5 µg/ml)”.
